In the Human Domainome abundance scans (Beltran et al. 2025):
± gives the uncertainty stated by the source.

B1: Histone H1t, residues 44 to 112; numbered along this chain, P22492 (parent)
chain: VSKLITEALSVSQERVGMSLVALKKALAAAGYDVEKNNSRIKLSLKSLVNKGILVQTRGTGASGSFKLS

Variants of: B1
Assay: abundance fitness (aPCA) (normalised: wild type 0, dead -1); higher = more abundant; growth selection in yeast, the domain comes from the species named
Conditions: Homo sapiens

Abundance fitness of substitutions, site by site:
L48: A -0.755 ± 0.084 | V -0.536 ± 0.087 | F -0.404 ± 0.039 | Q -0.643 ± 0.075 | P -0.873 ± 0.074 | E -0.784 ± 0.18 | W -0.402 ± 0.15 | H -0.979 ± 0.097 | I -0.564 ± 0.059 | T -0.592 ± 0.064 | C -0.589 ± 0.13 | D -0.405 ± 0.14 | Y -0.624 ± 0.061 | N -0.775 ± 0.094 | R -0.864 ± 0.1 | S -0.801 ± 0.068 | K -0.939 ± 0.079 | G -0.894 ± 0.12
T57: A 0.024 ± 0.044
N50: P -0.076 ± 0.036 | M -0.394 ± 0.096 | F -1.1 ± 0.3 | R -0.082 ± 0.038 | K -0.108 ± 0.12 | L -0.312 ± 0.043 | G -0.099 ± 0.04 | Y -0.092 ± 0.26 | W -0.827 ± 0.077 | E 0.027 ± 0.07 | C -0.311 ± 0.096 | S 0.092 ± 0.041 | H -0.24 ± 0.11 | Q 0.066 ± 0.068 | V -0.388 ± 0.046 | I -0.398 ± 0.29 | D -0.105 ± 0.12 | T 0.018 ± 0.05 | A -0.037 ± 0.036
K51: L -0.281 ± 0.031 | H -0.289 ± 0.14 | N -0.081 ± 0.11 | W -0.557 ± 0.13 | R 0.132 ± 0.062 | V -0.481 ± 0.042 | E 0.016 ± 0.078 | F -0.557 ± 0.091 | T -0.212 ± 0.051 | M -0.258 ± 0.053 | G -0.322 ± 0.097 | Q -0.065 ± 0.041 | Y -1.1 ± 0.34 | A -0.164 ± 0.056 | P -0.323 ± 0.036 | D -0.383 ± 0.13 | S -0.161 ± 0.05
K46: Q -0.226 ± 0.066 | Y -0.895 ± 0.14 | R -0.053 ± 0.066 | N -0.489 ± 0.11 | S -0.332 ± 0.041 | P -0.841 ± 0.07 | T -0.209 ± 0.079 | V -0.197 ± 0.065 | W -0.418 ± 0.094
V49: K -0.173 ± 0.044 | M 0.062 ± 0.044 | H -0.432 ± 0.083 | N -0.54 ± 0.052 | F -0.056 ± 0.033 | Y -0.135 ± 0.049 | D -0.416 ± 0.48 | Q -0.323 ± 0.079 | S -0.423 ± 0.074 | P -0.434 ± 0.12 | R -0.262 ± 0.2 | A -0.336 ± 0.3 | L 0.052 ± 0.035 | I -0.026 ± 0.054 | W -0.495 ± 0.34
I53: T -0.082 ± 0.058 | V -0.025 ± 0.045 | M -0.054 ± 0.048 | C -0.153 ± 0.063 | F -0.031 ± 0.042 | L -0.067 ± 0.029 | Y -0.184 ± 0.056 | Q 0.033 ± 0.046 | P -0.202 ± 0.041 | W -0.062 ± 0.075 | A -0.118 ± 0.058 | G -0.363 ± 0.13 | E -0.002 ± 0.053 | R -0.099 ± 0.068 | H -0.095 ± 0.058 | S -0.081 ± 0.038
G52: R -0.434 ± 0.099 | P -0.39 ± 0.032 | M -0.199 ± 0.052 | W -0.457 ± 0.2 | Q -0.3 ± 0.048 | Y -0.425 ± 0.067 | C -0.01 ± 0.13 | I -0.352 ± 0.054 | L -0.212 ± 0.03 | K -0.123 ± 0.066 | T -0.15 ± 0.036 | S -0.129 ± 0.033 | H -0.283 ± 0.05 | F -0.184 ± 0.045 | N -0.201 ± 0.079 | D -0.08 ± 0.45
V55: C -0.077 ± 0.1 | W -0.297 ± 0.063 | P -0.163 ± 0.062 | E 0.027 ± 0.096 | Q -0.127 ± 0.056 | M 0.002 ± 0.035 | G 0.056 ± 0.069 | D -0.291 ± 0.11 | H -0.08 ± 0.1 | F -0.114 ± 0.036 | N -0.102 ± 0.079 | T 0.062 ± 0.053 | I -0.079 ± 0.049 | A -0.106 ± 0.064 | L -0.056 ± 0.028 | S 0.071 ± 0.038 | Y -0.15 ± 0.059
S47: D -0.07 ± 0.18 | Y -0.23 ± 0.11 | G -0.465 ± 0.12 | E 0.232 ± 0.1 | H -0.13 ± 0.082 | K -0.191 ± 0.089 | M -0.05 ± 0.066 | V -0.307 ± 0.071 | I -0.587 ± 0.24 | Q 0.02 ± 0.041 | T 0.01 ± 0.043 | W -0.143 ± 0.09 | A -0.049 ± 0.045 | L -0.228 ± 0.033 | F -0.41 ± 0.1 | R -0.087 ± 0.058 | C 0.036 ± 0.16 | N -0.156 ± 0.22
Q56: G 0.005 ± 0.053 | R -0.031 ± 0.034 | P -0.026 ± 0.03 | E 0.127 ± 0.045 | A 0.212 ± 0.037 | K 0.083 ± 0.029 | T 0.047 ± 0.028
L54: N -0.249 ± 0.095 | R 0.168 ± 0.25 | M 0.062 ± 0.16 | F -0.036 ± 0.049 | S -0.047 ± 0.11 | A -0.3 ± 0.25 | Q 0.092 ± 0.16 | K -0.087 ± 0.14 | I 0.197 ± 0.094 | P -0.083 ± 0.08 | V 0.158 ± 0.14 | Y -0.311 ± 0.071 | H -0.325 ± 0.12 | T -0.246 ± 0.1
